# According to US20080274950A1 (BABRAHAM INSTITUTE, published 2008):
# T1: mouse N-cadherin on L cells after removal of the prodomain with trypsin (mouse, UniProt P15116 160-906)
# T1 construct: whole, on cells; Removal of the prodomain was almost complete by western blot; also called L cells after treatment; trypsin-treated L cell transfectants
# T1 sequence (looked up): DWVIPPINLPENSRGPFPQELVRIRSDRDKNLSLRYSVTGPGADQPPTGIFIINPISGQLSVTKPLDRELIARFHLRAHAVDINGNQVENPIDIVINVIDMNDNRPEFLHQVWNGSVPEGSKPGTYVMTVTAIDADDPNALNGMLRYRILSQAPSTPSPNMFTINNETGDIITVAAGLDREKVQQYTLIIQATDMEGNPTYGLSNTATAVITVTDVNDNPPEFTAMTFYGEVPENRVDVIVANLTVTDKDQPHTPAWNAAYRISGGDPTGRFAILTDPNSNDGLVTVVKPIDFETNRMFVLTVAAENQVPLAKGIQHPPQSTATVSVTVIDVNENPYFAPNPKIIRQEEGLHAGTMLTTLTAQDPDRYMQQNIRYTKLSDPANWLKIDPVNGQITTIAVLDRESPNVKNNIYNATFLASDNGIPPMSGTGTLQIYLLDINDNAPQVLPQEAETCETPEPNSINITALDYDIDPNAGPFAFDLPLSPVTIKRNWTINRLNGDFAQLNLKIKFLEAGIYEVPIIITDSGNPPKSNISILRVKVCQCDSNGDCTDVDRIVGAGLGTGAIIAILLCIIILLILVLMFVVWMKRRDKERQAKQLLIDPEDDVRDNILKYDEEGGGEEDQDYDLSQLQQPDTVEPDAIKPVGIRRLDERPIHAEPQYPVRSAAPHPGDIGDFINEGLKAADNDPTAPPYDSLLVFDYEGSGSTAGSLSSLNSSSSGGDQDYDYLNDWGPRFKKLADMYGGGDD
# T2: human N-cadherin naturally expressed on DX3 melanoma cells (human, UniProt P19022 160-906)
# T2 construct: also called DX3 Cells; N-cadherin+ve DX3 melanoma cells
# T2 sequence: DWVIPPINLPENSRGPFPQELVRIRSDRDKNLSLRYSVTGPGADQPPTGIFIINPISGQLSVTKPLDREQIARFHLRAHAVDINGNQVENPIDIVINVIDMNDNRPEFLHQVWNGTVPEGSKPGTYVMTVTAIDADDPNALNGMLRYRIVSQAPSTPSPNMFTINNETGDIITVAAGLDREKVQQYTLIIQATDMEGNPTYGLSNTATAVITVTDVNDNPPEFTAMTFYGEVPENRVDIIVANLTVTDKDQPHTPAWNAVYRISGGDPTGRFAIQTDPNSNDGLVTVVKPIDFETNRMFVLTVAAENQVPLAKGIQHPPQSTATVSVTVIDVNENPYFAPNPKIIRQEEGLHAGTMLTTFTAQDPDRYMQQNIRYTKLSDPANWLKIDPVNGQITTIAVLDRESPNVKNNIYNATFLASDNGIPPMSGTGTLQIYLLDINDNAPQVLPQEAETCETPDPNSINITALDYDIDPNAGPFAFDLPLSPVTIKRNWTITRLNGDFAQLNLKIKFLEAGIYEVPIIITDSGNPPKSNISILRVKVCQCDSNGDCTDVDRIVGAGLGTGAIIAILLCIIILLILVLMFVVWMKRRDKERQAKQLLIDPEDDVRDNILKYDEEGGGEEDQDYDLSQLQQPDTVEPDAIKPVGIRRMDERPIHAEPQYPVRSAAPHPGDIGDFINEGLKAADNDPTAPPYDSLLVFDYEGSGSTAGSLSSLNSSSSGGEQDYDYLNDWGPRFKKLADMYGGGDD
# B1: wild type chicken N-cadherin-Fc fusion protein, dimeric (linked by disulphide bonds at the Ig hinge region) (Fc fusion, UniProt P10288 165-729, looked up)
# chain: DWVIPPINLPENSRGPFPQELVRIRSDRDKSLSLRYSVTGPGADQPPTGIFIINPISGQLSVTKPLDREQIASFHLRAHAVDVNGNQVENPIDIVINVIDMNDNRPEFLHQVWNGTVPEGSKPGTYVMTVTAIDADDPNAQNGMLRYRILSQAPSSPSPNMFTINNETGDIITVAAGLDREKVQQYTLIIQATDMEGNPTYGLSNTATAVITVTDVNDNPPEFTAMTFYGEVPENRVDVIVANLTVTDKDQPHTPAWNARYQMTGGDPTGQFTILTDPNSNDGLVTVVKPIDFETNRMFVLTVAAENQVPLAKGIQHPPQSTATVSITVIDVNESPYFVPNPKLVRQEEGLLAGSMLTTFTARDPDRYMQQTSLRYSKLSDPANWLKIDPVNGQITTTAVLDRESIYVQNNMYNATFLASDNGIPPMSGTGTLQIYLLDINDNAPQVNPKEATTCETLQPNAINITAVDPDIDPNAGPFAFELPDSPPSIKRNWTIVRISGDHAQLSLRIRFLEAGIYDVPIVITDSGNPHASSTSVLKVKVCQCDINGDCTDVDRIVGAGLGTG
# notes: extracellular domain; also called dimeric N-cadherin-Fc; wild type N-cadherin; not shown: hinge region, CH2 and CH3 domains of human IgG1 heavy chain (vector pIgSig)
# Legend:
# [1] = target: T1, mouse N-cadherin on L cells after …; assay: adhesion of trypsin-treated L cell transfectants to coated N-cadherin Fc
# Method: Adhesion tests were conducted substantially as described in Example 1. Briefly, K562 Cells or L cells transfected with wild type or mutant N-cadherin were allowed to settle for 45 minutes at 37° C. onto N-cadherin Fc fusion proteins coated at 1 μg/ml to a 96 well plate. Non-adherent cells were then washed off and residual adherent cells were quantitated by measuring acid phosphatase activity. Assays were conducted in quadruplicate and results are expressed as % cells adhering +/−SEM.
# L cells expressing mouse N-cadherin with an uncleaved prodomain (see Koch et al., 2004) were obtained from Dr Weisong Shan (Montreal Neurological Institute). The normal furin cleavage site, RQKR, had been replaced with a Factor Xa site, IEGR, to give the correct N-terminus after digestion. […] L cells suspended in HBSS containing 0.1% BSA were treated with 0.01% trypsin (Sigma, Type XI) in the presence of 2 mM Ca²⁺ for 10 minutes at 37° C. and the digestion was then quenched with soyabean trypsin inhibitor, 0.5 mg per ml (Sigma, Type I-S). Cells were then washed and tested for adhesion to N-cadherin Fc-fusion protein. To check for complete removal of the prodomain, the cells were lysed in SDS sample buffer and the cadherin analysed by SDS PAGE under reducing conditions on a 4-12% gradient gel. […]
# [2] = target: T2, human N-cadherin naturally expressed on …; assay: adhesion of DX3 cells to coated N-cadherin-Fc
# Method: Monomeric or dimeric N-cadherin-Fc fusion protein in Cos cell supernatants was added as described for the ELISA assay. DX3 Cells, a human melanoma cell line which expresses N-cadherin, were dissociated with Cell Dissociation Solution (Sigma, code C5789), resuspended in HBSS with 2% FCS and assessed for adhesion to wild type or mutant N-cadherin-Fc as previously described (Corps et al., 2001). Microscopic examination established that the cells were present as a single cell suspension as they settled onto the plate. For assays conducted in reducing conditions, 10 mM DTT was present during the adhesion and washing steps. Determinations were conducted in triplicate and results are presented as mean +/−sem.
binder,measurement,setting,value
B1,binding result,[1],binds
same,binding result,[2],binds
